For assay [1], the target named is T1, Mouse-Fc-tagged SARS-CoV2 S1-RBD (Sino Biologicals) recombinant protein (SARS-CoV-2, UniProt P0DTC2 319-541).
T1 construct: domain: S1-RBD
Description: ELISA on coated S1-RBD-mFc.

Assay [2] concerns the target T2, Human-Fc-tagged SARS-CoV2 S1 recombinant protein (Sino Biologicals) (SARS-CoV-2, UniProt P0DTC2 16-685).
T2 construct: domain: S1; Bought reagent
Description: ELISA on coated S1-hFc, 0.85 µg/ml; rabbit antibody in B-cell supernatant. In general terms: An ELISA detects its analyte on a solid surface through an enzyme-linked reagent.

In assay [3] the target is T1, Mouse-Fc-tagged SARS-CoV2 S1-RBD (Sino …). Description: competition ELISA: blocks S1-RBD-mFc binding to coated ACE-2 ECD.
Assay [4] has as its target T2, Human-Fc-tagged SARS-CoV2 S1 ….
The target is the same in assay [5]. Put plainly: ELISA on coated S1-hFc, 3 µg/ml; rabbit antibody in B-cell supernatant.
Assay [6] has as its target T1, Mouse-Fc-tagged SARS-CoV2 S1-RBD (Sino …). Put plainly: SPR, S1-RBD-mFc captured via anti-mouse-Fc antibody, 1:1 model. (In general: Surface plasmon resonance follows binding to a sensor surface in real time, without labels.)
The target is the same in assay [7]. Description: ELISA on coated S1-RBD-mFc. The source holds these as a separate data set.
Assay [8] deals with T3, His-tagged SARS-CoV S1-RBD (Sino Biologicals) (SARS-CoV, UniProt P59594 306-527).
T3 construct: domain: S1-RBD; Bought reagent
Put plainly: ELISA on coated His-tagged SARS-CoV S1-RBD [D00020 Figure 8A continued].

For assay [9], the target named is T1, Mouse-Fc-tagged SARS-CoV2 S1-RBD (Sino …).

Where two headings read alike, the source gives them in different places.

B1: P043.A.00109.B12 (antibody, V domains shown)
VH: QSLEESGGGLVKPEGSLTLTCKASGFDLNTYYYMCWVRQAPGKGLEWIACIATSDSGHTAYASWARGRFTISKTSSTTVTLQMTGLTAADTATYFCARGGRSVGDGVDLWGPGTLVTVSS
VL: DIVMTQTPASVEAAVGGTVTIKCQASQSISSWLAWYQQKPGQPPKLLIYDASDLASGVPSRFKGSGSGTEFTLTISDLESADAATYYCQSYLYVESGSHGFGFGGGTEVVVR
notes: also called 468; protein sample ID 468
For B1, the values for the 50% effective concentration (EC50) in [1] and in assay [2] were 5.6 ng/mL and 18 ng/mL, respectively. Besides, the half-maximal inhibitory concentration (IC50) (commonly the concentration needed to halve the response being measured) in assay [3] worked out at 21.6 ng/mL; in assay [4], 18.1 ng/mL.

B2: P043.A.00017.E07 (protein sample ID 449) (antibody, V domains shown)
VH: QSVEESGGRLVTPGTPLTLTCTVSGFSLSSYAMSWVRQAPGKGLEWIGIISSSGSTYYASWAKGRFTISKTSTTVDLKITSPTTEDTATYFCARAMYPGYSTGVYNIWGPGTLVTVSL
VL: AIQMTQSPSSLAASVGDTVTITCKASEDIGYELNWYQQKLGIAPKLLIYGANTLESGVPSRFSGSGSETDYTLTISSVQAEDAGIYYCQQGYNTPNTFGAGTKVEIK
Regarding B2, the EC50 – broadly, the concentration at which the effect is half-maximal – amounted to 8.8 ng/mL in assay [1], 5.3 ng/mL in assay [5] and 6.5 ng/mL in assay [7]. For the same molecule, the IC50 is 53.9 ng/mL in assay [3], 3.6 ng/mL in [4] and 50.8 ng/mL in assay [9]. Also, the equilibrium dissociation constant (Kd) (commonly a measure of binding affinity in units of concentration) in assay [6] amounted to 0.308 nM. In addition, the koff – broadly, the rate constant with which the complex falls apart – in assay [6] stood at 0.000239 s⁻¹. For the same molecule, the on-rate (kon) (in general, the rate constant with which the complex forms) in assay [6] turned out to be 780000 M⁻¹ s⁻¹. In addition, the binding result in [8] is on record as “no binding (tested: 1000 ng/ml)”.

B3: P043.A.00097.B02 (antibody, V domains shown)
VH: QELVESGGGLVQAGESLKLSCKASGIDFSSYGISWVRQAPGKGLEWIAYIYPGFGITNYANSVKGRFTISSDNAQNTVFLQMTSLTASDTATYFCTRAYASSSGYYIHYFNLWGPGTLVTVSS
VL: AIQMTQSPSSLAASVGDTVTITCKASEDIGYGLNWYQQKLGIAPKLLIYGANTLESGVPSRFSGSGSETDYTLTISSVQAEDAGIYYCQQAYSTPLTFGAGTKVEIK
Turning to B3, the concentration for a half-maximal effect (EC50) is 3.4 ng/mL in [1] and 5.4 ng/mL in assay [2]. The values for the 50% inhibitory concentration (IC50) in [3] and in assay [4] were 41.7 ng/mL and 5.5 ng/mL, respectively.

B4: P043.A.00092.C12 (antibody, V domains shown)
VH: QEELKETGGGLVQPGGSLTLSCKASGFDFSSYYMSWVRQAPGKGLEWIGVIYASKGSTDYASWVNGRFTISSDNAQNTVDLQMNSLTAADTATYYCARSKRFYTYGYAGYAYAHYYYGMDLWGPGTLVTVSS
VL: AIQMTQSPSSLAASVGDTVTITCKASEDIGYGLNWYQQKLGIAPKLLIYGADTLESGVPSRFSGSGSETDYTLTISSVQAEDAGIYYCQQGYSTPLTFGAGTKVEIK
notes: also called 472; protein sample ID 472
In the case of B4, the EC50 in assay [1] was 8.3 ng/mL; in assay [2], 6.8 ng/mL. Also, the IC50 amounted to 29.9 ng/mL in assay [3] and 6.5 ng/mL in assay [4].

B5: P043.A.00020.D06 (protein sample ID 444) (antibody, V domains shown)
VH: QSVEESGGRLVTPGTPLTLTCTVSGFSLSSYAMNWVRQAPGKGLEWIGIISSSGSTYYASWAKGRFTISKTSTTVDLKITSPTTEDTATYFCARVGAGYAGYGYDNYYGMDPWGPGTLVTVSS
VL: AIQMTQSPSSLAASVGDTVTITCKASEDIGYGLNWYQQKLGIAPKLLIYGANTLESGVPSRFSGSGSETDYTLTISSVQAEDAGIYYCQQGYSTPLTFGAGTKVEIK
Consider B5, for which the EC50 in assay [1] was determined as 7.3 ng/mL; in assay [5], 5.7 ng/mL; in assay [7], 8.2 ng/mL. The IC50 in assay [3] was 60.3 ng/mL; in assay [4] it was 7.2 ng/mL; in [9] it was 65.1 ng/mL. The Kd in [6] came to 1.36 nM. Also, the koff in assay [6] is 0.00032 s⁻¹. Further, the association rate constant (kon) in assay [6] was 236000 M⁻¹ s⁻¹. Moreover, in assay [8], the binding result was “no binding (tested: 1000 ng/ml)”.
